In brackets after ≈: the same amount, converted by molar mass.
Assays:
P. apista = assay: MIC by broth microdilution against P. apista; assay type: cell-based, Pandoraea apista
Method: (§1) MIC values were determined using a modification of the standard broth microdilution reference method defined by the Clinical and Laboratory Standards Institute (CLSI), CLSL. 2015. Methods for Dilution Antimicrobial Susceptibility Tests for Bacteria That Grow Aerobically; Approved Standard-10th Edition. Clinical and Laboratory Standards Institute, Wayne, PA. The modification was based on the replacement of Mueller Hinton Broth with either CAA media (with and without NaCl) or CAA supplemented with 2.5% human serum. MIC is the minimum concentration of peptide sufficient to suppress at least 80% of the bacterial growth compared to control.
(§2) Based on these nine most prevalent strains, direct lytic agents, including GN370, AM1, AM2, and AM3, were evaluated against various isolates from each of the 9 strains. MICs and MBECs (Example 3) were determined, and a sputum inhibition test was conducted, as described below in Example 5.
(§3) The MICs for were determined as described below using the broth microdilution method for meropenem, GN370, AM1, AM2, and AM3. The results are shown below in Tables 8-12.

B. cenocepacia = assay: MIC by broth microdilution against B. cenocepacia; assay type: cell-based, Burkholderia cenocepacia; set-up: MIC Range: unit not given beside the values
Method: as §1, §2, §3

B. gladioli = assay: MIC by broth microdilution against B. gladioli; assay type: cell-based, Burkholderia gladioli; conditions: B. gladioli isolates
Method: as §1, §2, §3

P. aeruginosa [1] = assay: Time-kill assay in cystic fibrosis patient sputum, P. aeruginosa; assay type: cell-based, Pseudomonas aeruginosa
Text: Sputum from 5 cystic fibrosis patients was pooled. The resulting mixture was not filtered, as it was very dense and not amenable to sterilization by filtration. Sputum is known to be a complex mixture of DNA, carbohydrates, and lipids ([…], 2016). As used herein, the term “sputum” refers to the mucus present in the respiratory tract of an animal, such as a human. Sputum may increase in thickness due to the irritation or infection, including bacterial infection, and in some instances, may be expelled by the animal while coughing. In certain instances, cystic fibrosis may be characterized by the presence of a thick, sticky mucus or sputum present in the lungs of cystic fibrosis patients. The activity of GN370, AM1, AM2, AM3, and meropenem was determined in the sputum using a time-kill assay format as disclosed in Zhang et al., Antimicrobial peptide therapeutics for cystic fibrosis, Antimicrobial Agents Chemother. 2005; 49(7):2921-2927. […] Untreated controls were included in addition to pretreatment plating (t=0) for a baseline CFU determination. Activity was also determined in the absence of sputum for comparison to activity observed in the presence of sputum.

A. dolens [2] = assay: MIC by broth microdilution against A. dolens; assay type: cell-based, Achromobacter dolens; conditions: A. dolens isolates
Method: as §1, §2, §3

A. dolens [3] = assay type: cell-based, Achromobacter dolens; conditions: A. dolens (15); 2-hour treatment
Method: (§4) The MBEC (after 2-hour treatments) was determined as described in Jones and Wozniak, PsI Produced by Mucoid Pseudomonas aeruginosa Contributes to the Establishment of Biofilms and Immune Evasion, Am. Soc. Microbiol. 2017, 8(3):e00864-17. Meropenem and tobramycin were included as controls and were both poorly active, with MBEC90 values of >256 μg/mL (data not shown).

S. maltophilia = test system: S. maltophilia
Method: (§5) Biofilms are then washed and treated with e.g., a 2-fold dilution series of the lysin in TSBg at e.g., 37° C. for 24 hours. After treatment, wells are washed, air-dried at e.g., 37° C. and stained with e.g., 0.05% crystal violet for 10 minutes.
(§6) The antibiofilm activity of GN370, AM1, AM2, and AM3 was evaluated against various Gram-negative bacteria prevalent in cystic fibrosis patients, including P. aeruginosa, S. maltophilia, and A. xylosoxidans.
(§7) The MBEC (after 2-hour treatments) was determined as described in Jones and Wozniak, PsI Produced by Mucoid Pseudomonas aeruginosa Contributes to the Establishment of Biofilms and Immune Evasion, Am. […] Microbiol.

A. xylosoxidans = A. xylosoxidans (15); 2-hour treatment
Method: as §5, §6, §7

B. multivorans = B. multivorans (15); 2-hour treatment
Method: as §5, §6, §7

P. aeruginosa [4] = assay: Serial passage resistance development study, P. aeruginosa; assay type: cell-based, Pseudomonas aeruginosa
A. ruhlandii = assay type: cell-based, Achromobacter ruhlandii; conditions: A. ruhlandii (15); 2-hour treatment
Method: as §4

[5] = Pandoraea apista, N 11 (Table 26)
[6] = S. maltophilia (26), 2-hour treatment
[7] = Burkholderia cenocepacia, N 15 (Table 26)

C[C@@H](O)[C@H]1C(=O)N2C(C(=O)O)=C(S[C@@H]3CN[C@H](C(=O)N(C)C)C3)[C@H](C)[C@H]12 [meropenem, reference compound]
MIC50 (P. apista; P. apista isolates): > 32 µg/mL | MIC90 (P. apista; P. apista isolates): > 32 µg/mL | MIC Range (P. apista; P. apista isolates): > 32 µg/mL | MIC50 (B. cenocepacia; B. cenocepacia isolates): 4 µg/mL (≈ 10.4 µM) | MIC90 (B. cenocepacia; B. cenocepacia isolates): 8 µg/mL (≈ 20.9 µM) | MIC Range (B. cenocepacia; B. cenocepacia isolates): 2-32 | MIC50 (B. gladioli): 1 µg/mL (≈ 2.61 µM) | MIC90 (B. gladioli): 2 µg/mL (≈ 5.22 µM) | activity in the presence and absence of sputum (P. aeruginosa [1]): poorly active | Log10 CFU/mL of sputum (P. aeruginosa [1]; absence of sputum, 1 hr): 5.38 Log10 CFU/mL of sputum | Log10 CFU/mL of sputum (P. aeruginosa [1]; absence of sputum, 3 hr): 4.98 Log10 CFU/mL of sputum | Log10 CFU/mL of sputum (P. aeruginosa [1]; absence of sputum, 24 hr): 6.38 Log10 CFU/mL of sputum | Log10 CFU/mL of sputum (P. aeruginosa [1]; presence of 10% sputum, 1 hr): 5.26 Log10 CFU/mL of sputum | Log10 CFU/mL of sputum (P. aeruginosa [1]; presence of 10% sputum, 3 hr): 4.78 Log10 CFU/mL of sputum | Log10 CFU/mL of sputum (P. aeruginosa [1]; presence of 10% sputum, 24 hr): 6.6 Log10 CFU/mL of sputum | MIC50 (A. dolens [2]): 2 µg/mL (≈ 5.22 µM) | MIC90 (A. dolens [2]): > 32 µg/mL

B1: GN370: lysin-AMP construct, SEQ ID NO: 149: MIDR, FIRL and NPTH moieties N-terminal to GN202 lysin (protein)
chain: MIDRFIRLNPTHGPRRPRRPGRRAPVRTSQRGIDLIKSFEGLRLSAYQDSVGVWTIGYGTTRGVTRYMTITVEQAERMLSNDIQRFEPELDRLAKVPLNQNQWDALMSFVYNLGAANLASSTLLDLLNKGDYQGAADQFPHWVNAGGKRLDGLVKRRAAERALFLEPLS
modifications: GN370 lysin
MIC50 (P. apista; P. apista isolates): > 32 µg/mL | MIC90 (P. apista; P. apista isolates): > 32 µg/mL | MIC50 (P. apista; [5]): >64 µg/mL | MIC90 (P. apista; [5]): >64 µg/mL | MIC Range (P. apista; [5]): >64 µg/mL | MBEC50 (A. dolens [3]): 32 µg/mL | MBEC90 (A. dolens [3]): 128 µg/mL | MBEC Range (A. dolens [3]): 4 to 128 µg/mL | antibiofilm activity (MBEC) against S. maltophilia (S. maltophilia; 2-hour treatments): highly active | MBEC50 (S. maltophilia; [6]): 1 µg/mL | MBEC90 (S. maltophilia; [6]): 2 µg/mL | MBEC Range (S. maltophilia; [6]): 0.064-4 ^ μg/mL | MBEC50 (A. xylosoxidans): 8 µg/mL | MBEC90 (A. xylosoxidans): >256 µg/mL | MBEC50 (B. multivorans): 8 µg/mL | MBEC90 (B. multivorans): 64 µg/mL | MIC50 (B. cenocepacia; B. cenocepacia isolates): > 32 µg/mL | MIC90 (B. cenocepacia; B. cenocepacia isolates): > 32 µg/mL | MIC50 (B. cenocepacia; [7]): >64 µg/mL | MIC90 (B. cenocepacia; [7]): >64 µg/mL | MIC50 (B. gladioli): > 32 µg/mL | MIC90 (B. gladioli): > 32 µg/mL | effect of sputum on antibacterial activity (P. aeruginosa [1]; 10% CF sputum vs no sputum): not inhibited | Log10 CFU/mL of sputum (P. aeruginosa [1]; absence of sputum, 1 hr): 2.3 Log10 CFU/mL of sputum | Log10 CFU/mL of sputum (P. aeruginosa [1]; absence of sputum, 3 hr): 2.3 Log10 CFU/mL of sputum | Log10 CFU/mL of sputum (P. aeruginosa [1]; absence of sputum, 24 hr): 2.3 Log10 CFU/mL of sputum | Log10 CFU/mL of sputum (P. aeruginosa [1]; presence of 10% sputum, 1 hr): 3.9 Log10 CFU/mL of sputum | Log10 CFU/mL of sputum (P. aeruginosa [1]; presence of 10% sputum, 3 hr): 3.6 Log10 CFU/mL of sputum | Log10 CFU/mL of sputum (P. aeruginosa [1]; presence of 10% sputum, 24 hr): 2.3 Log10 CFU/mL of sputum | CFU reduction by 3 hours (P. aeruginosa [1]; time-kill): 1.5 log10 | CFU reduction by 24 hours (P. aeruginosa [1]; time-kill): > 3 log10 | change in MIC over 28-day serial passage (P. aeruginosa [4]; P. aeruginosa (PA453)): No change | MIC (P. aeruginosa [4]; P. aeruginosa PA453, target organism of serial passage study): 0.125 µg/mL | change in MIC over serial passage (P. aeruginosa [4]; P. aeruginosa strain CFS 1292, Day 28): no significant changes | MIC50 (A. dolens [2]): 32 µg/mL | MIC90 (A. dolens [2]): > 32 µg/mL | MBEC50 (A. ruhlandii): 4 µg/mL | MBEC90 (A. ruhlandii): 64 µg/mL | MBEC Range (A. ruhlandii): 4 to 64 µg/mL
